This series in a line: protein stability index of a GFP-peptide fusion (GPS, HEK-293T) (PSI 1-6); higher = more stable.
Where [1] appears, read: treatment: DMSO, c terminus: a fixed tail appended.
Where [2] appears, read: treatment: MLN4924 1 uM, 8 h, c terminus: a fixed tail appended.

± gives the standard deviation.
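Further: 24-mer peptide tiles fused after GFP, lentivirally expressed, FACS-sorted into six equal bins by GFP/DsRed ratio, decoded by Illumina sequencing, PSI is the read-weighted mean bin number.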

With AAALKCQLCEKAPKEATVMCEQCD [TRIM9], the protein stability index under setting [1] worked out at 5.33 ± 0.22 and the protein stability index under setting [2] is 5.4 ± 0.15.

As to AAETAAQGPTPRYFTWDEVAQRSG [FADS1], the protein stability index stood at 4.23 ± 0.23 under setting [1] and 4.11 ± 0.27 under setting [2].

As for AAETRGAVEGAARTTPSRREITGV [PALM], the protein stability index by setting is: under setting [1], 4.86 ± 0.36; under setting [2], 5.07 ± 0.18. AAQDRPMSPGDCPPETTETPKCSS [YJU2B] had a protein stability index under setting [1] of 5.54 ± 0.24 and a protein stability index under setting [2] of 5.3 ± 0.34.

For the sequence AARVGLLQYSTQVHTEFTLRNFNS [MATN2], the protein stability index is, setting by setting: under setting [1], 2.37 ± 0.19; under setting [2], 2.19 ± 0.28.

ACAQLATGAACRLVEAVLSGEVLN [HDAC6]: the protein stability index is, setting by setting: under setting [1], 2.44 ± 0.53; under setting [2], 2.65 ± 0.4.

ACDLQPCPTEPPDDSCQDQPGTNC [ADAMTSL2] registered a protein stability index under setting [1] of 5.49 ± 0.34 and a protein stability index under setting [2] of 5.51 ± 0.39. On the same counts, the results for ACLVSCFQQLMVETCSCGYYLHPL [SCNN1D] are 2.91 ± 0.17 and 3.21 ± 0.19. In the same order, the values of ADEGSRNSRFQMLFTSFQEPPCEG [NETO1] are 3.98 ± 0.094 and 4.17 ± 0.22.

Take ADISMIGQFGVGFYSAYLVAEKVV [HSP90AB1]: the protein stability index under setting [2] came out at 2.86 ± 0.44. ADWLGLKDEDLDLFPASPTREAHR [FBF1] had a protein stability index under setting [1] of 4.77 ± 0.21 and a protein stability index under setting [2] of 4.61 ± 0.12. Regarding AEEIRIKGKYNISSEDYRQLELVI [KCNK9], the protein stability index came to 2.25 ± 0.2 under setting [1] and 2.05 ± 0.38 under setting [2]. For the sequence AEEWYKSKYADLSDAANRNHEALR [PRPH], the protein stability index by setting is: under setting [1], 4.27 ± 0.21; under setting [2], 4.43 ± 0.35.

In the case of AELLKKQEELNRKAEELDRREREL [SCAMP3], the protein stability index is 5.43 ± 0.26 under setting [1] and 5.44 ± 0.33 under setting [2]. As to AEQRGDNALKDARAKLDELEGALH [KRT71], the protein stability index runs as follows: under setting [1], 5.16 ± 0.2; under setting [2], 5.37 ± 0.29.

Turning to AFEAARDLDACALVRGHRRRLLRR [ZSWIM9], the protein stability index by setting is: under setting [1], 4.5 ± 0.2; under setting [2], 4.45 ± 0.21.

Regarding AGARKIYAVEASTMAQHAEVLVKS [CARM1], the protein stability index turned out to be 3.79 ± 0.39 under setting [1] and 4.07 ± 0.58 under setting [2]. Turning to AGFDAARGDPLGGCQVSPEGYAHL [HDAC6], the protein stability index is, setting by setting: under setting [1], 3.75 ± 0.26; under setting [2], 3.78 ± 0.2. AGGFSIRNQKGEQVFRLAFRSGAL [MYORG]: the protein stability index is, setting by setting: under setting [1], 1.77 ± 0.2; under setting [2], 2.28 ± 0.39.

For the sequence AGIMLLALVCLLSCLLPSSEAKLY [SPACA3], the protein stability index reads like this: under setting [1], 2.94 ± 0.12; under setting [2], 3.25 ± 0.48. On to AGLASGLLNQQSLKRSANQMGVSA [MED27], for which the protein stability index reads like this: under setting [1], 3.62 ± 0.06; under setting [2], 3.69 ± 0.096. On to AGTGASRSSHSSDSGGSDVDLDPT [ELF3], for which the protein stability index reads like this: under setting [1], 5.59 ± 0.23; under setting [2], 5.51 ± 0.22. For AHKMKFSDLFSLAEEYEDSSTKPP [INTS3], the protein stability index by setting is: under setting [1], 4.22 ± 0.17; under setting [2], 4.17 ± 0.1. In turn, AIDRNYVPGKSLAVSCPGWSAVA [SNX12] yielded a protein stability index (treatment: DMSO, c terminus: native) of 2.73 ± 0.33 and a protein stability index (treatment: MLN4924 1 uM, 8 h, c terminus: native) of 1.97 ± 0.31. As for AIVQQVPAPSRMQMPQGNPLLLSH [SNX8], the protein stability index by setting is: under setting [1], 2.72 ± 0.38; under setting [2], 2.7 ± 0.31. On to AKADTTSTVTPVPGQEKGSALEGR [EHMT1], for which the protein stability index under setting [1] worked out at 5.3 ± 0.24 and the protein stability index under setting [2] was determined as 5.38 ± 0.12.

With AKGSLGTQIGFADLMGVLTKGVRE [FEM1A], the protein stability index was 2.49 ± 0.19 under setting [1] and 2.4 ± 0.3 under setting [2].

With AKGWGPCYSRQFITSCPCWLEILL [SMAD6], the protein stability index runs as follows: under setting [1], 2.69 ± 0.29; under setting [2], 2.8 ± 0.42. In the case of AKHLIASMLSKNPEDRPSLDDIIR [PLK2], the protein stability index was 2.61 ± 0.38 under setting [1] and 2.79 ± 0.24 under setting [2]. As to AKQQKFIKAVTHQVKFGQQNPRQV [ZC3H15], the protein stability index under setting [1] was 3.19 ± 0.22 and the protein stability index under setting [2] was 3.4 ± 0.3. In turn, ALCLEVRPTYFEMKNEKLLSKASE [RNF180] returned a protein stability index under setting [1] of 3.51 ± 0.21 and a protein stability index under setting [2] of 3.67 ± 0.4. With ALEKLRSEMEEEKRQAVNKAVANM [ZMYND11], the protein stability index by setting is: under setting [1], 4.42 ± 0.38; under setting [2], 4.34 ± 0.36. With ALGDIREVQKLVESGVDVNSQNEV [ANKRD40], the protein stability index stood at 5.28 ± 0.3 under setting [1] and 5.24 ± 0.29 under setting [2]. In the same order, the values of ALLPSLSHCSQLTTLSFYGNSISI [PRAME] are 3.14 ± 0.66 and 3.14 ± 0.35. ALPVPVIVSNFNYFYHRETENEEQ [KCNA4] gave a protein stability index under setting [1] of 3.54 ± 0.15 and a protein stability index under setting [2] of 3.57 ± 0.17. On the same counts, the results for ALTGHLRTHSVIKEETNHSEMAED [IKZF1] are 5.38 ± 0.23 and 5.13 ± 0.31. In the same order, the values of ANKYLVEDVLLLNFEEMRALLDSL [KLHL14] are 2.34 ± 0.21 and 2.37 ± 0.19. For the sequence APDRATAVATASRLGPYVLLEPEE [TRIB3], the protein stability index runs as follows: under setting [1], 5.04 ± 0.31; under setting [2], 5.04 ± 0.24. In the same order, the values of APMDAPRYQHGIAVIGNFLYVVGG [KLHL13] are 2.18 ± 0.36 and 2.25 ± 0.25. On the same counts, the results for APSKKAAKDPGKGELPNHPKPAGG [FBF1] are 5.1 ± 0.43 and 5.53 ± 0.24. As for AQDDDRLREERKKAKKNKDKYVGV [CLINT1], the protein stability index runs as follows: under setting [1], 5.27 ± 0.17; under setting [2], 5.48 ± 0.38.

For the sequence AQQFALMAPLLFNGCRSGEIFAID [DCAF4], the protein stability index by setting is: under setting [1], 2.6 ± 0.72; under setting [2], 2.64 ± 0.34.

In turn, AQSLPGPCAAAREGRLERRECGLA [IRX6] gave a protein stability index under setting [1] of 4.42 ± 0.2 and a protein stability index under setting [2] of 4.53 ± 0.38. Regarding ASADRTVIVWDGDTTRQVQRISCF [WDR41], the protein stability index reads like this: under setting [1], 2.25 ± 0.27; under setting [2], 2.58 ± 0.26. Consider ASLTIPLVPETEDDRKLAALLKFH [YJU2B], for which the protein stability index is 3.05 ± 0.24 under setting [1] and 3.41 ± 0.24 under setting [2].

Consider ASPRRLSNVSSSGSINLLESPQLA [MAP2], for which the protein stability index reads like this: under setting [1], 4.2 ± 0.2; under setting [2], 4.12 ± 0.15. On the same counts, the results for ASREENQAGPEATTSDPQDLDMKK [PALM] are 5.53 ± 0.46 and 5.43 ± 0.42.

As for ATITSRGSSLSGSLCSLLESQSTS [LURAP1L], the protein stability index came out at 3.49 ± 0.28 under setting [1] and 3.6 ± 0.32 under setting [2]. For ATLTTTSATSKLIHPDEDISLEER [ZNF207], the protein stability index is, setting by setting: under setting [1], 5.23 ± 0.064; under setting [2], 5.35 ± 0.27. In the same order, the values of AVADSIPQVLADLGSFESPANSET [PCDHGA10] are 5.07 ± 0.54 and 5.35 ± 0.2. As for AVFAVSAVVHEYALAVCLSFFYPV [SOAT1], the protein stability index under setting [1] was determined as 3.23 ± 0.37 and the protein stability index under setting [2] was 3.07 ± 0.23.

With AVGNSSGSGQNEESPRKRKKATEA [FBXO28], the protein stability index by setting is: under setting [1], 4.95 ± 0.34; under setting [2], 5.29 ± 0.27. Sequence AVKLYNSGDFRSSTEDMERALSEY [P3H4] yielded a protein stability index under setting [1] of 4.57 ± 0.4 and a protein stability index under setting [2] of 4.14 ± 0.26.

On to AVLEYLYTGMFTSSPDLDDMKLII [RHOBTB2], for which the protein stability index by setting is: under setting [1], 2.68 ± 0.6; under setting [2], 2.53 ± 0.3. As to AVPEDLADRLVRVHGDPAVWWVSQ [FUT8], the protein stability index worked out at 2.61 ± 0.29 under setting [1] and 2.65 ± 0.039 under setting [2]. In the same order, the values of AVSDGRHMFVWGGYKSNQVRGLYD [KLHDC2] are 2.28 ± 0.58 and 2.27 ± 0.51. On the same counts, the results for AVTDLLGRRQRKSEKRRDPPNGPN [WASL] are 4.06 ± 0.14 and 4.31 ± 0.29. As for AVVALTQDQPSEAATGGATLAQTI [HDAC6], the protein stability index was 4.27 ± 0.33 under setting [1] and 4.38 ± 0.24 under setting [2]. On to AVVAVDRQAIFPDTWTLTEEHGLQ [PXN], for which the protein stability index is, setting by setting: under setting [1], 3.35 ± 0.51; under setting [2], 3.35 ± 0.34. On the same counts, the results for AWNSPFYNCGEESLQSCMHFQPNS [NANOGP8] are 2.41 ± 0.13 and 2.43 ± 0.41. Take AYQEVFKPENISLRNKLRELCVKL [SMG5]: the protein stability index runs as follows: under setting [1], 2.24 ± 0.23; under setting [2], 2.17 ± 0.35. CFITLTTIGFGDYVALQTKGALQK [KCNK9]: the protein stability index is, setting by setting: under setting [1], 2.97 ± 0.63; under setting [2], 2.67 ± 0.59.

In turn, CIYSEVMEALDLQPGLSFLNLGSG [PCMTD2] registered a protein stability index under setting [1] of 2.29 ± 0.34 and a protein stability index under setting [2] of 2.33 ± 0.44. Take CMVEIVQKYDPDKDEWHKVFDLPE [KLHL13]: the protein stability index under setting [1] was 2.52 ± 0.27 and the protein stability index under setting [2] stood at 2.59 ± 0.24. For the sequence CPPLPAGVSFHIDSAELEPGSQTA [FBXO34], the protein stability index by setting is: under setting [1], 5.03 ± 0.4; under setting [2], 5.09 ± 0.2. Regarding CQDCGRAFNQNSSLGRHKRTHTGE [ZNF8], the protein stability index is, setting by setting: under setting [1], 3.73 ± 0.44; under setting [2], 3.42 ± 0.17. Consider CRRCYDWIHRPGCRCKNSNTVYCK [SPRY1], for which the protein stability index by setting is: under setting [1], 2.82 ± 0.089; under setting [2], 3.05 ± 0.13.

For CVPPSEFSEPSFITESYQTLHPIS [ETS1], the protein stability index reads like this: under setting [1], 2.98 ± 0.19; under setting [2], 3.08 ± 0.16. Under setting [1], DAENQKNWLDPAKEIKKQVRSGAW [EPB41L3] came in with a protein stability index of 3.55 ± 0.5. Take DCRYPYEYEGGHIKTAVNLPLERD [CDC25B]: the protein stability index reads like this: under setting [1], 4.13 ± 0.23; under setting [2], 4.14 ± 0.63. For DDSSSESGSGNGSSTLNPSTSSST [NOL4L], the protein stability index by setting is: under setting [1], 5.57 ± 0.31; under setting [2], 5.49 ± 0.2. As for DEAGGGAEGDSWEEEGFGSSSPVK [WEE1], the protein stability index came to 5.3 ± 0.068 under setting [1] and 5.35 ± 0.26 under setting [2]. Consider DEDAGLPRPVQLDETHPYTVTSVS [NEK8], for which the protein stability index is, setting by setting: under setting [1], 5.12 ± 0.19; under setting [2], 5.23 ± 0.18.
